According to doi:10.1101/2024.10.16.618570 (bioRxiv, 2024):

Target: the molecule itself
Assay: native gel or EMSA

B1: BAK (BCL-2 homologous antagonist/killer), endogenous in mouse liver mitochondria (natural protein, UniProt O08734 1-209, looked up)
chain: MASGQGPGPPKVGCDESPSPSEQQVAQDTEEVFRSYVFYLHQQEQETQGAAAPANPEMDNLPLEPNSILGQVGRQLALIGDDINRRYDTEFQNLLEQLQPTAGNAYELFTKIASSLFKSGISWGRVVALLGFGYRLALYVYQRGLTGFLGQVTCFLADIILHHYIARWIAQRGGWVAALNFRRDPILTVMVIFGVVLLGQFVVHRFFRS
stoichiometry N: 2
